Biological target: T1, trypsin (Bos taurus, UniProt P00760)
T1 construct: gene PRSS1
T1 sequence (P00760 24-246): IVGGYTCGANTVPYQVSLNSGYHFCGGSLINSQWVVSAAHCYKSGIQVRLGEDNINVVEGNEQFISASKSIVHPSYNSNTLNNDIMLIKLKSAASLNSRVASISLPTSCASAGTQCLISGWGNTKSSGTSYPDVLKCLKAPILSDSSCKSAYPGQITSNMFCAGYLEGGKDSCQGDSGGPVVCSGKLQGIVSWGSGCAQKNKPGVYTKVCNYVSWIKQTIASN
Assay: proteolytic susceptibility with trypsin (HPLC, MALDI-TOF)
Format: in vitro ADME
Details: 100 μM peptide stock, 200 μM protease stock, TBS buffer pH 7.5, one, seven, thirty days at room temperature
Procedure: In order to confirm whether β-peptide is degraded by a protease, proteolytic susceptibility of β-VhexS was measured with trypsin, chymotrypsin, and subtilisin which cleave protein nonspecifically. Peptide and pretease stock solution was prepared by desolving 100 μM of beta-VhexS and 200 μM of each pretease in TBS buffer at pH 7.5. 10 μL of stock solution. 40 μL of peptide stock solution and 10 μL of protease stock solution were transferred into micro tube and incubated for one, seven, thirty days at room temperature. The reaction was quenched with adding 100 μL of 1% TFA solution. As a control sample, 40 μL of peptide stock solution without protease was also treated with 1% TFA solution.
Degree of peptide degradation was analyzed with high performance liquid chromatography using C3 column for Agilent analysis. […] The HPLC peaks of both standard sample and enzyme treated peptide sample were compared, and the peaks appeared only for enzyme treated sample were analyzed with MALDI-TOF. The results confirmed that β-peptide was not degraded by enzymes.

## Ac-KVK EVF FVK EVF FVK EVY-NH2 (Ac-KVKEVFFVKEVFFVKEVY-NH2; also: beta-amino acids, places not given here) [β-peptide]
  degradation of peptide by protease: not degraded
